# Source: US20120052069A1 (Amgen, published 2012)
# Target: β-Klotho overexpressed in recombinant human 293T kidney cells
# Experiment: cell-based or functional assay
binder,measurement,value
human FGF21 (wild-type mature FGF21) (ligand) HPIPDSSPLLQFGGQVRQRYLYTDDAQQTEAHLEIREDGTVGGAADQSPESLLQLKALKPGVIQILGVKTSRFLCQRPDGALYGSLHFDPEACSFRELLLEDGYNVYQSEAHGLPLHLPGNKSPHRDPAPRGPARFLPLPGLPPAPPEPPGILAPQPPDVGSSDPLSMVGPSQGRSPSYAS,"EC50 (nM), ELK luciferase assay",0.4 nM
same,"Efficacy, ELK luciferase assay",100%
